Results: patent US8071348B2, “Protein tyrosine phosphatase substrate-trapping double mutant and uses thereof” (Albert Einstein College of Medicine of Yeshiva University, priority 2002, dated 2011)
[ ]: non-standard residue; d: D form. F2Pmp = N[C@@H](Cc1ccc(C(F)(F)P(=O)(O)O)cc1)C(=O)O

How the values were obtained:
[1] = target: T1, Ac-Asp-Ala-Asp-Glu-F2Pmp-Leu-NH2; test: ITC, 25 C, pH 7.0
T1 construct: Synthetic hexapeptide printed in three-letter code; also called F2Pmp-containing peptide; non-hydrolyzable substrate analog
T1 peptide: Ac-DADE[F2Pmp]L-NH2
Description: (§1) All isothermal titration calorimetry experiments were performed using an MCS Isothermal Titration Calorimetry System from Microcal Inc. (Northampton, Mass.). Experiments at pH 7.0 were conducted at 25° C., in 50 mM 3,3-dimethylglutarate buffer containing 1 mM DTT. The ionic strength of the buffer was adjusted to 0.15 M by addition of NaCl. Protein concentration in the calorimeter cell was 27-85 µM, while the ligand concentration in the syringe was 0.37-1 mM.
The PTP1B samples used in the isothermal titration calorimetry experiments were dialyzed completely against buffer. High-concentration stock solutions were prepared for ligands with distilled water, and adjusted to pH 7.0. […] Protein dilution during titration was determined by titration of buffer into the protein solution. […] The heat of ligand dilution was corrected by subtracting the average heat of injection after saturation.
(§2) A typical titration curve and binding isotherm for the binding of D181A/Q262A to Ac-Asp-Ala-Asp-Glu-F_2Pmp-Leu-NH_2 is shown in FIG. 3. From curve-fitting of the binding isotherms, the stoichiometry for the binding of the peptide to D181A/Q262A was determined to be 1:1.

[2] = target: T1, Ac-Asp-Ala-Asp-Glu-F2Pmp-Leu-NH2; test: ITC
Description: as §1, §2

[3] = test system: EGF receptor; test: Substrate pull-down: anti-HA immunoprecipitation of PTP1B forms from EGF-treated COS1 cells, anti-pTyr/anti-EGFR blot; type: cell-based, Monkey
Description: FIG. 5 illustrates immunoprecipitation (IP) and Western blots (WB) of the phospho-EGF receptor, and other less abundant PTP1B substrates, by the PTP1B substrate-trapping mutants. Wild-type PTP1B, D181A, D181A/Q262A, D181A/C215S, C215S, or blank vector (pJ3H) was used to transfect COS1 cells (4 μg plasmid/60 mm dish). The cells were maintained at 37° C. for 44-48 h. Twenty minutes before harvesting the cells, 20 ng/ml EGF was added to each dish. The PTP1B proteins were precipitated from the cell lysates using anti-hemagglutinin (anti-HA) antibody-conjugated agarose beads from the cell lysates (500 μg total protein) at 4° C. overnight. The beads were washed 3 times with the lysis buffer, mixed with 2×SDS sample buffer, and then boiled for 5 min. The immunocomplexes were resolved by SDS-PAGE, and transferred onto a nitrocellulose membrane. The membrane was probed with anti-pTyr HRP-conjugated antibody (lower panel). The membrane was then stripped and reblotted with anti-EGFR rabbit polyclonal antibody (middle panel). Thereafter, the membrane was further stripped, and re-probed with anti-HA HRP conjugate (upper panel).
The hemagglutinin-tagged (HA-tagged) full-length human wild-type PTP1B in pJ3H expression vector was a gift from Dr. Chemoff (30). The HA-tagged PTP1B mutants, C215S, D181A, D181A/C215S, and D181A/Q262A, were generated by PCR reactions, according to the standard procedure of the Quick-Change™ site-directed mutagenesis kit (Stratagene), using pJ3H-HA-PTP1B as a template. All mutations were verified by DNA sequencing.
Monkey kidney COS1 cells (ATCC: CRL-1650) were maintained in Dulbecco's modified Eagle's minimum essential medium (DMEM), supplemented with 10% fetal bovine serum (Life Technologies, Inc.), penicillin (50 units/ml), streptomycin (50 μg/ml), and L-glutamine (2 mM) under a humidified atmosphere containing 5% CO2. […] The efficiency of transfection, as assessed by 5-bromo-4-chloro-3-indolyl-β-D galactoside (X-Gal) staining of pCMV-β-gal-transfected (β-Gal staining kit, Invitrogen) COS cells, was 25%. […]

B1: PTP1B/D181A/Q262A, catalytic domain (residues 1 to 321) (enzyme, human, UniProt P18031 1-321, looked up)
chain: MEMEKEFEQIDKSGSWAAIYQDIRHEASDFPCRVAKLPKNKNRNRYRDVSPFDHSRIKLHQEDNDYINASLIKMEEAQRSYILTQGPLPNTCGHFWEMVWEQKSRGVVMLNRVMEKGSLKCAQYWPQKEEKEMIFEDTNLKLTLISEDIKSYYTVRQLELENLTTQETREILHFHYTTWPAFGVPESPASFLNFLFKVRESGSLSPEHGPVVVHCSAGIGRSGTFCLADTCLLLMDKRKDPSSVDIKKVLLEMRKFRMGLIATADQLRFSYLAVIEGAKFIMGDSSVQDQWKELSHEDLEPPPEHIPPPPRPPKRILEPHN
notes: range 1-321; Used in vitro (ITC, kinetics); also called PTP1B substrate-trapping double mutant
[1]
  TΔS: 6.6 kcal/mol
  ΔG: -11.1 kcal/mol
  ΔH: -4.5 kcal/mol
[2]
  fold higher substrate-binding affinity than PTP1B/C215S: 28 fold
[3]
  affinity for EGFR in in vivo substrate-trapping experiments, versus PTP1B/D181A or PTP1B/C215S: much higher affinity
[3]; EGF 20 ng/ml for 20 min, anti-HA immunoprecipitation (FIG. 5)
  quantity of tyrosine-phosphorylated EGF receptor co-precipitated, fold greater than with D181A: more than 3 fold
[3]; anti-HA immunoprecipitation, not visible in D181A or C215S samples (FIG. 5)
  trapping of other tyrosine phosphorylated proteins (P160, P120, P70, P60): trapped several novel, less-abundant tyrosine phosphorylated proteins
